Starred links: 1 amine or outer side, 2 acyl side, 3 side chain; linkers in the order of their positions; H or OH if unused. Non-standard residues stand in square brackets, D forms with d. No end group written: not given here. *: point of attachment. Cys(Acm) = CC(=O)NCSC[C@H](N[*:1])C(=O)[*:2]; Me2Gly = CN(C)CC(=O)*
Assays:
[1] = system: zymosan-induced focal inflammation in left hindleg of rats; assay: Rat inflammation study: in vivo imaging and biodistribution of Tc-99m labeled conjugates; conditions: i.v. tail vein, 30 minutes, average of two rats; for Inflam:Uninfl (target to background ratio, inflamed:uninflamed muscle): zymosan-inflamed left leg vs right leg muscle
Procedure: (§1) Rat inflammation studies were performed as follows. 2 male Wistar rats (Charles River, 200-250 g) were injected intramuscularly with (25 mg) zymosan, a yeast cell wall suspension, into their left hindlegs 24 hours before imaging. Focal inflammation in the leg was visually detectable after 1 day.
(§2) The rats were anaesthetized with somnitol (40 to 50 mg/kg), and the labeled conjugate solution (200 μL) was injected intravenously via the tail vein. Serial whole-body scintigrams were acquired at 30 minutes. The rats were then killed with anaesthesia overdose and samples of organs, urine, blood, inflamed muscle (left leg) and non-inflamed muscle (right leg) and inflammatory exudate (fluid) were weighed and counted in either a well-type gamma counter or in a gamma dose calibrator depending upon the organ. The dose calculations were made based on the assumption that the blood volume constituted 8% of body weight. The results of the conjugates represented in the table below are averages for two rats and are corrected for the residual dose in the tail.

[2] = system: zymosan-induced focal inflammation in left hindleg of rats; conditions: rat, in vivo, iv
Procedure: as §1, §2

| Substance | Fluid:Blood (inflammatory exudate:blood) [1] | Inflam:Uninfl (target to background ratio, inflamed:uninflamed muscle) [1] | GI Tract (% dose) [2] | Liver (% dose) [2] | Urine (% dose) [2] |
| --- | --- | --- | --- | --- | --- |
| N,N-dimethylGly-Thr-Cys(Acm)-Gly-Thr-Lys-Pro-Pro-Arg ([Me2Gly]T[Cys(Acm)]GTKPPR; also: 99mTc label via N,N-dimethylGly/Cys(Acm) chelator) [N,N-dimethylGly-Thr-Cys(Acm)-GTKPPR-OH] | 1.6 | 4.6 | 2.5 % dose | 2.4 % dose | 68.5 % dose |
| N,N-dimethylGly-Ser-Cys(Acm)-Gly-Thr-Lys-Pro-Pro-Arg-OH ([Me2Gly]S[Cys(Acm)]GTKPPR-OH; also: 99mTc label via N,N-dimethylGly-Ser-Cys(Acm) chelator) [N,N-dimethylGly-Ser-Cys(Acm)-GTKPPR-OH] | 1.9 | 5.3 | 2.8 % dose | 2.4 % dose | 63.5 % dose |
